Results as given in paper doi:10.1101/2025.09.09.675108 (bioRxiv, 2025).
Non-standard residues stand in square brackets, D forms with d. *: point of attachment. FITC = O=C1OC2(c3ccc(O)cc3Oc3cc(O)ccc32)c2ccc(NC(=S)*)cc21; pT = C[C@@H](OP(=O)(O)O)[C@H](N)C(=O)O

How the values were obtained:
Assay in all cases: fluorescence polarisation
[1] = biological target: DDIAS pS993 peptide (FITC-ETRSAWpSPELFS-NH2)
[2] = biological target: DDIAS pS676 peptide (FITC-SYDAp…-NH2)
[3] = biological target: recombinant TOPBP1 BRCT7/8 domain (amino acids 1264-1493), WT (UniProt Q92547 1264-1493)
recombinant TOPBP1 BRCT7/8 domain (amino acids 1264-1493), WT, sequence (Q92547 1264-1493): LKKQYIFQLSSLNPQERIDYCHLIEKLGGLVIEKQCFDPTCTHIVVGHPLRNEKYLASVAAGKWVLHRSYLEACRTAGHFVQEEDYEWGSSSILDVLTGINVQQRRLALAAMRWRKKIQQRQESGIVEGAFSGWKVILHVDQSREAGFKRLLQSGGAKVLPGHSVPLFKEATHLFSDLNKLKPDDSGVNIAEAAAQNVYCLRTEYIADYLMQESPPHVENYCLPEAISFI

Row | Kd [1] [nM] | Kd [2] [nM] | Kd [3] [nM] | Molecule
1 | 1200 | 300 |  | recombinant TOPBP1 BRCT7/8 domain (amino acids 1264-1493), WT (from UniProt Q92547 1264-1493) (domain or fragment)
2 |  |  | 200 | {FITC}-ESIYF[pT]PELYDPEDT-NH2 [pBRIP1 peptide (FITC-ESIYFpTPELYDPEDT-NH2)]
